Target: T1, Bacillus subtilis DNA Ligase D (BsuLigD) (B. subtilis) (UniProt O34398)
T1 sequence: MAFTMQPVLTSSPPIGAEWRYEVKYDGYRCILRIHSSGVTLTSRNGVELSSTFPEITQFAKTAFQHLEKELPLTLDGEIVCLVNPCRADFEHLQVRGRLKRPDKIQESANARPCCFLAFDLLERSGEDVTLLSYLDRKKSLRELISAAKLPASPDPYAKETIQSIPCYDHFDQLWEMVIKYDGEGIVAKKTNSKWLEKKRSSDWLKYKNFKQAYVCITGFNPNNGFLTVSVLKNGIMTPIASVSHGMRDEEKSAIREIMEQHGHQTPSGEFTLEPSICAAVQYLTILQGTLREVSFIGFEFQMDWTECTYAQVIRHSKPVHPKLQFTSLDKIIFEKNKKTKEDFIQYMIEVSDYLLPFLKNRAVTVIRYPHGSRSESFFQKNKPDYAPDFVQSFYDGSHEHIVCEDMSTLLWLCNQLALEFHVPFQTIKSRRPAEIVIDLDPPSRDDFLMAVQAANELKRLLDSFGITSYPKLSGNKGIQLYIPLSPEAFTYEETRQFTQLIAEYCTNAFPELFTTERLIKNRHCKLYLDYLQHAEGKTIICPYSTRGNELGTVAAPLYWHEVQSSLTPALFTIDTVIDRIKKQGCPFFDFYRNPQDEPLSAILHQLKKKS

primer usage by BsuLigD (percentage of extended primers against reaction time) on a gapped molecule, 10 ng BsuLigD, 10 µM NTPs, without or with 40 ng of BsuKu: 3 fold
B1: Bacillus subtilis Ku (BsuKu) (natural protein)
chain: MNRTPSLHTKEKKGFIDMHTMWKGSISFGLVNIPIKLYAATEDKDIKLRSLHKEDHAPIKYEKVCTNCEKTLSPDEIVKGYEYVKGKYVVLTDEDLKSLKQEHEEKAVEIVDFVQLQEIDPIYFNRSYFVGPGDNGTKAYTLLREALRSTGKIGIANMTIRSKQQLAILRVYENCIVMESIHYPDEVRSAAQVPGVPDQSNVNDKELQTAITLIDELTAKFEPEKYEDTYRQALLQRVNDKLENKETAVTPDKAPPREDVIDLVSALQASIDRTRRPNRETPAAAPAQAAEPKGAGDKKQKTTRKKASGTS

Reference: article PMC3656841
